Assay results as given in publication PMC8763920, “Unprotected peptide macrocyclization and stapling via a fluorine-thiol displacement reaction” (Nature Communications, 2022).
*1 amine or outer side, *2 acyl side, *3 side chain or, on linkers, in order; H or OH if unused. Where a SMILES comes first, the peptide text is derived from it. Bridges are numbered along the chain shown (N, C = ends). [ ]: non-standard residue; d: D form. X3 = O=C(CSCCCCCCCCSCC(=O)[*:2])[*:1]; X2 = O=C(CSCCCCCCCSCC(=O)[*:2])[*:1]; X1 = O=C(CSCCCCCCSCC(=O)[*:2])[*:1]; X4 = O=C(CSCCCCCSCC(=O)[*:2])[*:1]; dDap = NC[C@@H](N)C(=O)O; Dap = NC[C@H](N)C(=O)O

experiment: circular dichroism; settings: water; pH ns; 25 °C; 70 uM

Compound	helicity [%]
CC(=O)N[C@@H](CCC(N)=O)C(=O)N[C@@H](CO)C(=O)N[C@@H](CCC(N)=O)C(=O)N[C@@H](CCC(N)=O)C(=O)N[C@H](C(=O)N[C@@H](Cc1ccccc1)C(=O)N[C@H]1CNC(=O)CSCCCCCCCCSCC(=O)NC[C@@H](C(=O)N[C@@H](CCC(N)=O)C(=O)N[C@@H](CC(N)=O)C(N)=O)NC(=O)[C@H](CC(C)C)NC(=O)[C@H](CC(C)C)NC(=O)[C@H](CCCNC(=N)N)NC(=O)[C@H](Cc2c[nH]c3ccccc23)NC(=O)[C@H](CC(C)C)NC(=O)[C@H](CC(N)=O)NC1=O)[C@@H](C)O	42
CC(=O)N[C@@H](CCC(N)=O)C(=O)N[C@@H](CO)C(=O)N[C@@H](CCC(N)=O)C(=O)N[C@@H](CCC(N)=O)C(=O)N[C@H](C(=O)N[C@@H](Cc1ccccc1)C(=O)N[C@H]1CNC(=O)CSCCCCCCCCSCC(=O)NC[C@H](C(=O)N[C@@H](CCC(N)=O)C(=O)N[C@@H](CC(N)=O)C(N)=O)NC(=O)[C@H](CC(C)C)NC(=O)[C@H](CC(C)C)NC(=O)[C@H](CCCNC(=N)N)NC(=O)[C@H](Cc2c[nH]c3ccccc23)NC(=O)[C@H](CC(C)C)NC(=O)[C@H](CC(N)=O)NC1=O)[C@@H](C)O	37
CC(=O)N[C@@H](CCC(N)=O)C(=O)N[C@@H](CO)C(=O)N[C@@H](CCC(N)=O)C(=O)N[C@@H](CCC(N)=O)C(=O)N[C@H](C(=O)N[C@@H](Cc1ccccc1)C(=O)N[C@H]1CNC(=O)CSCCCCCCCSCC(=O)NC[C@@H](C(=O)N[C@@H](CCC(N)=O)C(=O)N[C@@H](CC(N)=O)C(N)=O)NC(=O)[C@H](CC(C)C)NC(=O)[C@H](CC(C)C)NC(=O)[C@H](CCCNC(=N)N)NC(=O)[C@H](Cc2c[nH]c3ccccc23)NC(=O)[C@H](CC(C)C)NC(=O)[C@H](CC(N)=O)NC1=O)[C@@H](C)O	36
CC(=O)N[C@@H](CCC(N)=O)C(=O)N[C@@H](CO)C(=O)N[C@@H](CCC(N)=O)C(=O)N[C@@H](CCC(N)=O)C(=O)N[C@H](C(=O)N[C@@H](Cc1ccccc1)C(=O)N[C@H]1CNC(=O)CSCCCCCCCSCC(=O)NC[C@H](C(=O)N[C@@H](CCC(N)=O)C(=O)N[C@@H](CC(N)=O)C(N)=O)NC(=O)[C@H](CC(C)C)NC(=O)[C@H](CC(C)C)NC(=O)[C@H](CCCNC(=N)N)NC(=O)[C@H](Cc2c[nH]c3ccccc23)NC(=O)[C@H](CC(C)C)NC(=O)[C@H](CC(N)=O)NC1=O)[C@@H](C)O	40
CC(=O)N[C@@H](CCC(N)=O)C(=O)N[C@@H](CO)C(=O)N[C@@H](CCC(N)=O)C(=O)N[C@@H](CCC(N)=O)C(=O)N[C@H](C(=O)N[C@@H](Cc1ccccc1)C(=O)N[C@H]1CNC(=O)CSCc2ccc(cc2)-c2ccc(cc2)CSCC(=O)NC[C@@H](C(=O)N[C@@H](CCC(N)=O)C(=O)N[C@@H](CC(N)=O)C(N)=O)NC(=O)[C@H](CC(C)C)NC(=O)[C@H](CC(C)C)NC(=O)[C@H](CCCNC(=N)N)NC(=O)[C@H](Cc2c[nH]c3ccccc23)NC(=O)[C@H](CC(C)C)NC(=O)[C@H](CC(N)=O)NC1=O)[C@@H](C)O	16
CC(=O)N[C@@H](CCC(N)=O)C(=O)N[C@@H](CO)C(=O)N[C@@H](CCC(N)=O)C(=O)N[C@@H](CCC(N)=O)C(=O)N[C@H](C(=O)N[C@@H](Cc1ccccc1)C(=O)N[C@H]1CNC(=O)CSCc2ccc(cc2)-c2ccc(cc2)CSCC(=O)NC[C@H](C(=O)N[C@@H](CCC(N)=O)C(=O)N[C@@H](CC(N)=O)C(N)=O)NC(=O)[C@H](CC(C)C)NC(=O)[C@H](CC(C)C)NC(=O)[C@H](CCCNC(=N)N)NC(=O)[C@H](Cc2c[nH]c3ccccc23)NC(=O)[C@H](CC(C)C)NC(=O)[C@H](CC(N)=O)NC1=O)[C@@H](C)O	18
CC[C@H](C)[C@@H]1NC(=O)[C@@H](NC(=O)[C@H](CCC(=O)O)NC(=O)[C@@H]2CCCN2C(=O)[C@H](CC(N)=O)NC(=O)[C@H](CCC(=O)O)NC(C)=O)CNC(=O)CSCc2ccc(cc2)CSCC(=O)NC[C@@H](C(=O)N[C@@H](Cc2c[nH]cn2)C(=O)N[C@H](C(=O)N[C@@H](CCC(N)=O)C(=O)N[C@@H](CCCNC(=N)N)C(=O)N[C@H](C(=O)N[C@@H](CCSC)C(N)=O)C(C)C)C(C)C)NC(=O)[C@H](CC(=O)O)NC(=O)[C@H](CC(C)C)NC1=O	17
CC[C@H](C)[C@@H]1NC(=O)[C@@H](NC(=O)[C@H](CCC(=O)O)NC(=O)[C@@H]2CCCN2C(=O)[C@H](CC(N)=O)NC(=O)[C@H](CCC(=O)O)NC(C)=O)CNC(=O)CSCc2cccc(c2)CSCC(=O)NC[C@@H](C(=O)N[C@@H](Cc2c[nH]cn2)C(=O)N[C@H](C(=O)N[C@@H](CCC(N)=O)C(=O)N[C@@H](CCCNC(=N)N)C(=O)N[C@H](C(=O)N[C@@H](CCSC)C(N)=O)C(C)C)C(C)C)NC(=O)[C@H](CC(=O)O)NC(=O)[C@H](CC(C)C)NC1=O	46
CC[C@H](C)[C@@H]1NC(=O)[C@@H](NC(=O)[C@H](CCC(=O)O)NC(=O)[C@@H]2CCCN2C(=O)[C@H](CC(N)=O)NC(=O)[C@H](CCC(=O)O)NC(C)=O)CNC(=O)CSCc2cccc(c2)CSCC(=O)NC[C@H](C(=O)N[C@@H](Cc2c[nH]cn2)C(=O)N[C@H](C(=O)N[C@@H](CCC(N)=O)C(=O)N[C@@H](CCCNC(=N)N)C(=O)N[C@H](C(=O)N[C@@H](CCSC)C(N)=O)C(C)C)C(C)C)NC(=O)[C@H](CC(=O)O)NC(=O)[C@H](CC(C)C)NC1=O	44
CC[C@H](C)[C@@H]1NC(=O)[C@H](NC(=O)[C@H](CCC(=O)O)NC(=O)[C@@H]2CCCN2C(=O)[C@H](CC(N)=O)NC(=O)[C@H](CCC(=O)O)NC(C)=O)CNC(=O)CSCc2ccc(cc2)CSCC(=O)NC[C@H](C(=O)N[C@@H](Cc2c[nH]cn2)C(=O)N[C@H](C(=O)N[C@@H](CCC(N)=O)C(=O)N[C@@H](CCCNC(=N)N)C(=O)N[C@H](C(=O)N[C@@H](CCSC)C(N)=O)C(C)C)C(C)C)NC(=O)[C@H](CC(=O)O)NC(=O)[C@H](CC(C)C)NC1=O	19
CC[C@H](C)[C@@H]1NC(=O)[C@H](NC(=O)[C@H](CCC(=O)O)NC(=O)[C@@H]2CCCN2C(=O)[C@H](CC(N)=O)NC(=O)[C@H](CCC(=O)O)NC(C)=O)CNC(=O)CSCc2cccc(c2)CSCC(=O)NC[C@@H](C(=O)N[C@@H](Cc2c[nH]cn2)C(=O)N[C@H](C(=O)N[C@@H](CCC(N)=O)C(=O)N[C@@H](CCCNC(=N)N)C(=O)N[C@H](C(=O)N[C@@H](CCSC)C(N)=O)C(C)C)C(C)C)NC(=O)[C@H](CC(=O)O)NC(=O)[C@H](CC(C)C)NC1=O	8
CC[C@H](C)[C@@H]1NC(=O)[C@H](NC(=O)[C@H](CCC(=O)O)NC(=O)[C@@H]2CCCN2C(=O)[C@H](CC(N)=O)NC(=O)[C@H](CCC(=O)O)NC(C)=O)CNC(=O)CSCc2cccc(c2)CSCC(=O)NC[C@H](C(=O)N[C@@H](Cc2c[nH]cn2)C(=O)N[C@H](C(=O)N[C@@H](CCC(N)=O)C(=O)N[C@@H](CCCNC(=N)N)C(=O)N[C@H](C(=O)N[C@@H](CCSC)C(N)=O)C(C)C)C(C)C)NC(=O)[C@H](CC(=O)O)NC(=O)[C@H](CC(C)C)NC1=O	13
CC[C@H](C)[C@@H]1NC(=O)[C@@H](NC(=O)[C@H](CCC(=O)O)NC(=O)[C@@H]2CCCN2C(=O)[C@H](CC(N)=O)NC(=O)[C@H](CCC(=O)O)NC(C)=O)CNC(=O)CSCCCCCCSCC(=O)NC[C@@H](C(=O)N[C@@H](Cc2c[nH]cn2)C(=O)N[C@H](C(=O)N[C@@H](CCC(N)=O)C(=O)N[C@@H](CCCNC(=N)N)C(=O)N[C@H](C(=O)N[C@@H](CCSC)C(N)=O)C(C)C)C(C)C)NC(=O)[C@H](CC(=O)O)NC(=O)[C@H](CC(C)C)NC1=O (Ac-ENPE[Dap]ILD[Dap]HVQRVM-NH2; linker 5-9 via X1)	29
CC[C@H](C)[C@@H]1NC(=O)[C@@H](NC(=O)[C@H](CCC(=O)O)NC(=O)[C@@H]2CCCN2C(=O)[C@H](CC(N)=O)NC(=O)[C@H](CCC(=O)O)NC(C)=O)CNC(=O)CSCCCCCCCSCC(=O)NC[C@@H](C(=O)N[C@@H](Cc2c[nH]cn2)C(=O)N[C@H](C(=O)N[C@@H](CCC(N)=O)C(=O)N[C@@H](CCCNC(=N)N)C(=O)N[C@H](C(=O)N[C@@H](CCSC)C(N)=O)C(C)C)C(C)C)NC(=O)[C@H](CC(=O)O)NC(=O)[C@H](CC(C)C)NC1=O (Ac-ENPE[Dap]ILD[Dap]HVQRVM-NH2; linker 5-9 via X2)	18
CC[C@H](C)[C@@H]1NC(=O)[C@@H](NC(=O)[C@H](CCC(=O)O)NC(=O)[C@@H]2CCCN2C(=O)[C@H](CC(N)=O)NC(=O)[C@H](CCC(=O)O)NC(C)=O)CNC(=O)CSCCCCCCCCSCC(=O)NC[C@@H](C(=O)N[C@@H](Cc2c[nH]cn2)C(=O)N[C@H](C(=O)N[C@@H](CCC(N)=O)C(=O)N[C@@H](CCCNC(=N)N)C(=O)N[C@H](C(=O)N[C@@H](CCSC)C(N)=O)C(C)C)C(C)C)NC(=O)[C@H](CC(=O)O)NC(=O)[C@H](CC(C)C)NC1=O (Ac-ENPE[Dap]ILD[Dap]HVQRVM-NH2; linker 5-9 via X3)	25
CC[C@H](C)[C@@H]1NC(=O)[C@@H](NC(=O)[C@H](CCC(=O)O)NC(=O)[C@@H]2CCCN2C(=O)[C@H](CC(N)=O)NC(=O)[C@H](CCC(=O)O)NC(C)=O)CNC(=O)CSCCCCCSCC(=O)NC[C@@H](C(=O)N[C@@H](Cc2c[nH]cn2)C(=O)N[C@H](C(=O)N[C@@H](CCC(N)=O)C(=O)N[C@@H](CCCNC(=N)N)C(=O)N[C@H](C(=O)N[C@@H](CCSC)C(N)=O)C(C)C)C(C)C)NC(=O)[C@H](CC(=O)O)NC(=O)[C@H](CC(C)C)NC1=O (Ac-ENPE[Dap]ILD[Dap]HVQRVM-NH2; linker 5-9 via X4)	24
CC[C@H](C)[C@@H]1NC(=O)[C@@H](NC(=O)[C@H](CCC(=O)O)NC(=O)[C@@H]2CCCN2C(=O)[C@H](CC(N)=O)NC(=O)[C@H](CCC(=O)O)NC(C)=O)CNC(=O)CSCCCCCCCSCC(=O)NC[C@H](C(=O)N[C@@H](Cc2c[nH]cn2)C(=O)N[C@H](C(=O)N[C@@H](CCC(N)=O)C(=O)N[C@@H](CCCNC(=N)N)C(=O)N[C@H](C(=O)N[C@@H](CCSC)C(N)=O)C(C)C)C(C)C)NC(=O)[C@H](CC(=O)O)NC(=O)[C@H](CC(C)C)NC1=O (Ac-ENPE[Dap]ILD[dDap]HVQRVM-NH2; linker 5-9 via X2)	25
CC[C@H](C)[C@@H]1NC(=O)[C@@H](NC(=O)[C@H](CCC(=O)O)NC(=O)[C@@H]2CCCN2C(=O)[C@H](CC(N)=O)NC(=O)[C@H](CCC(=O)O)NC(C)=O)CNC(=O)CSCCCCCCCCSCC(=O)NC[C@H](C(=O)N[C@@H](Cc2c[nH]cn2)C(=O)N[C@H](C(=O)N[C@@H](CCC(N)=O)C(=O)N[C@@H](CCCNC(=N)N)C(=O)N[C@H](C(=O)N[C@@H](CCSC)C(N)=O)C(C)C)C(C)C)NC(=O)[C@H](CC(=O)O)NC(=O)[C@H](CC(C)C)NC1=O (Ac-ENPE[Dap]ILD[dDap]HVQRVM-NH2; linker 5-9 via X3)	14
